Data taken from patent US6660837B1, “Modified protein derived from protein kinase N” (Kirin Beer Kabushiki Kaisha, priority 1995, dated 2003).

Legend:
[1] = target: T1, in vitro translated PKNN2 (Homo sapiens, UniProt Q16512); test: In vitro binding of GST-HuActSkl fragments to PKNN2; conditions: resistant to 0.5% Triton X-100/0.5 M NaCl wash
T1 construct: made in house; host or cells: in vitro translation in rabbit reticulocyte lysate (Promega)
Description: In vitro transcription for the N-terminal region of PKN (the amino acid sequence 1-474, this region being designated as PKNN2 (Example 8)) was performed as described in Example 8. For in vitro translation, cRNAs were translated in rabbit reticulocyte lysate (Promega) in the presence of [^35S] methionine as described in Example 8.
For in vitro binding experiment, 2 μl of in vitro translated PKNN2 was mixed with 5 μg of each GST-α-actinin fusion protein or with 25 μg of GST alone in 400 μl of GST binding buffer (20 mM Tris/HCl at pH 7.5, 0.5 mM DTT, 150 mM NaCl, 0.05% Triton-X100, 1 mM EDTA, 1 μg/ml leupeptin) and incubated for 1 hr at 4° C. After addition of 25 μl of glutathione-Sepharose 4B pretreated with 10 mg/ml of E. coli extract to block nonspecific binding, the binding reaction was continued for additional 30 min at 4° C. The glutathione-Sepharose 4B was then washed four times in GST washing buffer (20 mM Tris/HCl at pH 7.5, 0.5 mM DTT, 1 mM EDTA, 1 μg/ml leupeptin) containing 0.5 M NaCl and 0.5% Triton X-100, and further washed with GST washing buffer. Bound proteins were eluted with GST elution buffer (100 mM Tris/HCl at pH 7.5, 10 mM glutathione, 120 mM NaCl, 1 mM EDTA, 0.5 mM DTT, 1 μg/ml leupeptin) and were subjected to SDS-PAGE. The binding was visualized and quantitated by an imaging analyzer (FUJI BAS1000).

[2] = target: T2, purified PKN from rat testis (Rattus norvegicus, UniProt Q63433); test: Phosphorylation of native NF by PKN; format: biochemical; conditions: native bovine NF, with arachidonic acid; estimated by image quant
T2 construct: The purified PKN (1 ng) from rat testis cytosol; from tissue; host or cells: rat testis (cytosol / soluble fraction)
Description: Native NFs were prepared from bovine spinal cords according to a method described in Hisanaga, S. & Hirokawa, N., J. Mol. Biol. 202, 297-305 (1988). Kinase assay was carried out according to the following method.
(§1) Soluble cytosolic extract of spinal cord or purified NF proteins were boiled for 5 min to destroy endogenous protein kinase activity prior to their use as phosphate acceptors. The phosphorylation of NF preparations was carried out at 30° C. in an assay mixture containing 20 mM Tris/HCl at pH 7.5, 8 mM MgCl2, 100 μM ATP, 185 kBq of [γ-^32P]ATP, each subunit of NF, 20 ng/ml of purified PKN from rat testis, and with/without 40 μM arachidonic acid as indicated in each experiment. Reactions were terminated after various times by the addition of an equal volume of Laemli's sample buffer, and separation was performed on 7% SDS-PAGE. The gels were dried under vacuum and exposure to BAS1000 bio-imaging analyzer. Dephosphorylation of NF proteins was conducted with calf intestine alkaline phosphatase according to a method described in Carden, M. J. et al., J. Biol. Chem. 260, 9805-9817 (1985) and terminated after boiling for 5 min.

PKN = target: T3, PKN (Rattus norvegicus, UniProt Q63433); test: Phosphorylation of recombinant GST-NF domains by PKN; format: biochemical; conditions: GST-head-rod domain of each NF subunit
T3 construct: The purified PKN (1 ng) from rat testis cytosol; from tissue; host or cells: rat testis (cytosol / soluble fraction)
Description: as §1
(2) Phosphorylation of Recombinant NF by PKN To identify the region containing the phosphorylation site of NF by PKN, GST-head-rod and -tail domain of each subunit of NFs were bacterially synthesized (Example 8), and subjected to in vitro phosphorylation assay in the same manner as described above. […] The GST-tail domain of each subunit was not labeled at all. PKN also phosphorylated the GST-head-rod domain of vimentin (data not shown).

RhoA^Val14 CLVL^− = target: T4, RhoA^Val14 CLVL^− (Homo sapiens, UniProt P61586, G14V); test: Yeast two-hybrid, truncated PKN with RhoA^Val14CLVL^−; format: binding; conditions: yeast L40
T4 construct: expressed in transfected cells; host or cells: yeast strain L40
Excerpt: The cDNA fragments encoding various length of human PKN were inserted into the vector pBTM116 (Example 7) in frame with the upstream LexA DNA-binding domain sequences or the vector pVP16 (Example 7) in frame with the upstream VP16 transcription activation domain sequences. The cDNA fragments encoding human RhoA, RhoA^Val14, and RhoA^Ala37 were obtained by digesting pGEX-RhoA, pGEX-RhoA^Val14, and pGEX-RhoA^Ala37 (Example 1) with restriction enzymes, respectively, then cloned into pBTM116 and pVP16.
The expression plasmids were transfected into yeast L40 cells and plated on semi-solid media lacking tryptophan and leucine. Interaction was examined using a filter lift assay for the β-galactosidase activity in the same manner as in Example 6. […]

T1 sequence (Q16512 1-474): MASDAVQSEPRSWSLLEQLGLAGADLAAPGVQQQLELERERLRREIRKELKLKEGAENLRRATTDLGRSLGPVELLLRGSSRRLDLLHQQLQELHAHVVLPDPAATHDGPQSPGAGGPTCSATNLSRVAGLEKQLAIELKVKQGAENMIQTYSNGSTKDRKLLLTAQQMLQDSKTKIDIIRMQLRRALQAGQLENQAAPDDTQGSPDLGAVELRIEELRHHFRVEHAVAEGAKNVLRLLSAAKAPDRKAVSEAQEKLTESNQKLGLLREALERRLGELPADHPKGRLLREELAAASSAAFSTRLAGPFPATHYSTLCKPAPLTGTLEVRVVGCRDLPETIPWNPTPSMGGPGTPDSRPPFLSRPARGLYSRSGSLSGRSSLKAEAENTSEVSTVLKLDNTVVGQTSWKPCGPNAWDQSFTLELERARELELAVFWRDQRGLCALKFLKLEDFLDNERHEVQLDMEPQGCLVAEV
T2 sequence (Q63433 whole entry): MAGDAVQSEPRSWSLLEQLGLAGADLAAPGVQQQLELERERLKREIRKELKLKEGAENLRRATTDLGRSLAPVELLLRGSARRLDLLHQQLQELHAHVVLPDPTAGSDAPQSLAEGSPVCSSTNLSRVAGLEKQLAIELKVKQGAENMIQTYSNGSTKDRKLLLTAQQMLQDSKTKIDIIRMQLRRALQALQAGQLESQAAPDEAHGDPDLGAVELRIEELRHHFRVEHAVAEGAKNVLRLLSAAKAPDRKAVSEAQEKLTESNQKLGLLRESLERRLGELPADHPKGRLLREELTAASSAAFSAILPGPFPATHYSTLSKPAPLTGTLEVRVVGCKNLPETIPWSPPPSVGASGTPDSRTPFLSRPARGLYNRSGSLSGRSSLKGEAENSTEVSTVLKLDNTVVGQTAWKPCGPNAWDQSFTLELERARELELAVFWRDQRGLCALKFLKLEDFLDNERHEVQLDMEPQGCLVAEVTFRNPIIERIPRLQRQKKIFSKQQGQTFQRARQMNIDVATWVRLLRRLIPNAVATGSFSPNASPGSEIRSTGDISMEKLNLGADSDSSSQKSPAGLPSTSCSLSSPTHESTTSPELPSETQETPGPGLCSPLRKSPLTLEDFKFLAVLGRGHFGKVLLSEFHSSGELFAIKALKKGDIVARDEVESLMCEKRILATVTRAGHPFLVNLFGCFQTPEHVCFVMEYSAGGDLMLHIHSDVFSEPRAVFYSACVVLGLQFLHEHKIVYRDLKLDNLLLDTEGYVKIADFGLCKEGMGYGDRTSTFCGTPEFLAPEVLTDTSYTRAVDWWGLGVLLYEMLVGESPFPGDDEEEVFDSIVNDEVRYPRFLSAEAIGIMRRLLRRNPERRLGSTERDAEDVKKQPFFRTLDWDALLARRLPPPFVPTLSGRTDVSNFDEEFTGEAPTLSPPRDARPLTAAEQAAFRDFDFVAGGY
T3 sequence (Q63433 whole entry, the tested form may be a part): as the sequence (Q63433 whole entry) above
T4 sequence (P61586 1-189 G14V): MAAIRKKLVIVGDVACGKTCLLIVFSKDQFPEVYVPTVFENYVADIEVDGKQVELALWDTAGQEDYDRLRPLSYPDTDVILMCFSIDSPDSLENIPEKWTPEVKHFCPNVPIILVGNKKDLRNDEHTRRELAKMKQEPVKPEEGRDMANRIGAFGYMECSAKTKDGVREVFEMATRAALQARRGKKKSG

B1: HuActSkl (486-607): human skeletal muscle type α-actinin fragment, spectrin-like repeat 3, GST fusion (protein, UniProt P35609 486-607, looked up, fragment)
chain: ICDQWDRLGTLTQKRREALERMEKLLETIDQLHLEFAKRAAPFNNWMEGAMEDLQDMFIVHSIEEIQSLITAHEQFKATLPEADGERQSIMAIQNEVEKVIQSYNIRISSSNPYSTVTMDEL
modifications: GST fusion
notes: human skeletal muscle type α-actinin fragment, spectrin-like repeat 3, GST fusion
In the case of B1, the “binding of in vitro translated PKNN2 to the fragment” value (from here on “binding of in vitro translated PKNN2”) [1] is reported as “strongly bound”.

B2: NFM: neurofilament subunit M; native bovine in b342, GST-head-rod domain fusion in b344 (protein, UniProt O77788 2-926, looked up)
Neurofilament medium …: SYTLDSLGNPSAYRRVTETRSSFSRISGSPSSGFRSQSWSRGSPSTVSSSYKRSALAPRLTYSSAMLSSAESSLDFSQSSSLLDGGSGPGGDYKLSRSNEKEQIQGLNDRFAGYIEKVHYLEQQNKEIEAEIQALRQKQASHAQLGDAYDQEIRELRATLEMVNHEKAQVQLDSDHLEEDIHRLKERFEEEARLRDDTEAAIRALRKDIEESSLVKVELDKKVQSLQDEVAFLRSNHEEEVADLLAQIQASHITVERKDYLKTDISTALKEIRSQLESHSDQNMHQAEEWFKCRYAKLTEAAEQNKEAIRSAKEEIAEYRRQLQSKSIELESVRGTKESLERQLSDIEERHNHDLSSYQDTIQQLENELRGTKWEMARHLREYQDLLNVKMALDIEIAAYRKLLEGEETRFSTFAGSITGPLYTHRQPSIAISSKIQKTKVEAPKLKVQHKFVEEIIEETKVEDEKSEMEEALTAITEELAVSVKEEVKEEEAEEKEEKEEAEEEVVAAKKSPVKATAPELKEEEGEKEEEEGQEEEEEEEEAAKSDQAEEGGSEKEGSSEKEEGEQEEEGETEAEGEGEEAAAEAKEEKKMEEKAEEVAPKEELAAEAKVEKPEKAKSPVAKSPTTKSPTAKSPEAKSPEAKSPTAKSPTAKSPVAKSPTAKSPEAKSPEAKSPTAKSPTAKSPAAKSPAPKSPVEEVKPKAEAGAEKGEQKEKVEEEKKEAKESPKEEKAEKKEEKPKDVPEKKKAESPVKAESPVKEEVPAKPVKVSPEKEAKEEEKPQEKEKEKEKVEEVGGKEEGGLKESRKEDIAINGEVEGKEEEQETKEKGSGGEEEKGVVTNGLDVSPGDEKKGGDKSEEKVVVTKMVEKITSEGGDGATKYITKSVTVTQKVEEHEETFEEKLVSTKKVEKVTSHAIVKEVTQSD
For B2, the “extent of maximal phosphorylation by PKN per mol subunit of protein” value [2] was “about 6 mol/mol” and the “relative 32P incorporation into GST-head-rod domain (ratio NFH:NFM:NFL)” value (PKN) was 10.

B3: HuActSkl (423-653): human skeletal muscle type α-actinin fragment, GST fusion (protein)
chain: ILLQKDYESASLTEVRALLRKHEAFESDLAAHQDRVEQIAAIAQELNELDYHDAVNVNDRCQKICDQWDRLGTLTQKRREALERMEKLLETIDQLHLEFAKRAAPFNNWMEGAMEDLQDMFIVHSIEEIQSLITAHEQFKATLPEADGERQSIMAIQNEVEKVIQSYNIRISSSNPYSTVTMDELRTKWDKVKQLVPIRDQSLQEELARQHANERLRRQFAAQANAIGPWI
modifications: left off: a dimerising Fc or GST
notes: human skeletal muscle type α-actinin fragment, GST fusion
For B3, the “binding of in vitro translated PKNN2” value [1] was “strongly bound”.

B4: NFL: neurofilament subunit L; native bovine in b342, GST-head-rod domain fusion in b344 (protein, UniProt P02548 2-555, looked up)
Neurofilament light …: SSFSYEPYYSTSYKRRYVETPRVHISSVRSGYSTARSAYSSYSAPVSSSLSVRRSYSSSSGSLMPSLESLDLSQVAAISNDLKSIRTQEKAQLQDLNDRFASFIERVHELEQQNKVLEAELLVLRQKHSEPSRFRALYEQEIRDLRLAAEDATNEKQALQGEREGLEETLRNLQARYEEEVLSREDAEGRLMEARKGADEAALARAELEKRIDSLMDEIAFLKKVHEEEIAELQAQIQYAQISVEMDVSSKPDLSAALKDIRAQYEKLAAKNMQNAEEWFKSRFTVLTESAAKNTDAVRAAKDEVSESRRLLKAKTLEIEACRGMNEALEKQLQELEDKQNADISAMQDTINKLENELRTTKSEMARYLKEYQDLLNVKMALDIEIAAYRKLLEGEETRLSFTSVGSLTTGYTQSSQVFGRSAYGGLQTSSYLMSARSFPSYYTSHVQEEQIEVEETIEAAKAEEAKDEPPSEGEAEEEEKEKEEAEAEAEAEAEAEAEEEEGAQEEEAAKEDAEEAKEEEGGEGEEAEETKEAEEEEKKDEGAGEEQATKKKD
B4 was tested, and the “extent of maximal phosphorylation by PKN per mol subunit of protein” value [2] was “about 1 mol/mol” and the “relative 32P incorporation into GST-head-rod domain (ratio NFH:NFM:NFL)” value (PKN) was 2.

B5: HuActSkl (604-719): human skeletal muscle type α-actinin fragment, GST fusion (protein)
chain: MDELRTKWDKVKQLVPIRDQSLQEELARQHANERLRRQFAAQANAIGPWIQNKMEEIARSSIQITGALEDQMNQLKQYEHNIINYKNNIDKLEGDHQLIQEALVFDNKHTNYTMEH
modifications: left off: a dimerising Fc or GST
notes: as for B3
B5 was tested, and the “binding of in vitro translated PKNN2” value [1] was “not”.

B6: HuActSkl (653-837): human skeletal muscle type α-actinin fragment, GST fusion (protein)
chain: IQNKMEEIARSSIQITGALEDQMNQLKQYEHNIINYKNNIDKLEGDHQLIQEALVFDNKHTNYTMEHIRVGWELLLTTIARTINEVETQILTRDAKGITQEQMNEFRASFNHFDRRKNGLMDHEDFRACLISMGYDLGEAEFARIMTLVDPNGQGTVTFQSFIDFMTRETADTDTAEQVIASFRI
modifications: left off: a dimerising Fc or GST
notes: as for B3
In the case of B6, the “binding of in vitro translated PKNN2” value [1] is reported as “strongly bound”.

B7: amino acid sequence 3-135: truncated human PKN, amino acid sequence 3-135 in SEQ ID NO: 1, two-hybrid fusion (protein, UniProt Q16512 3-135, looked up, fragment)
chain: SDAVQSEPRSWSLLEQLGLAGADLAAPGVQQQLELERERLRREIRKELKLKEGAENLRRATTDLGRSLGPVELLLRGSSRRLDLLHQQLQELHAHVVLPDPAATHDGPQSPGAGGPTCSATNLSRVAGLEKQL
modifications: two-hybrid fusion
For B7, the “interaction with RhoA^Val14 CLVL^− (β-galactosidase filter assay)” value (RhoA^Val14 CLVL^−) was “interacted”.
